Test results as given in PMC10786315 (Proceedings of the National Academy of Sciences of the …, 2024).

Target: the molecule itself
Experiment: SEC

B1: LctR (LctP Regulator, CJ1608) (natural protein, C. jejuni, UniProt Q0P820 1-295, looked up)
chain: MKVLIIENEIYLAQSISIKLSDAGYSCEIINSFDEYNGEKYYDIILLSTNTNNFLKAVGQFKHSIIILLISYISTDTVSNPLKLGASDYIQKPFMIEELIRKIKHYQDFRKLSILNKAYQSYIKSRLETIKIPEYNYKKLKLPLILKSNKQSSADAFVFNYANECDITLSFIDLTSTNSVEKVMKLPTENNLLFLSNFQALKAAEKEKLLDFIQNKNVILHTNSNTDDLKINCINLNDNEKNINSNEILTIDEYVKYVIINYQNIFPDTDLSKKLGISRKSLWEKRKKYEISKKK
stoichiometry N: 2
